Data on 68 sequences can be found in the domain aggregation screens of Martell et al. (2025).

This data set is described as follows: soluble fraction after stress (log2 fold change); higher = more stays soluble; pooled small domains, quantitative proteomics. The note with it: stress: 50 degC. In outline: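 Pooled custom libraries of small protein domains were each held under stress at 50°C. The read-out, high-throughput quantitative proteomics, tracked how much of each protein stayed soluble. This is reported as a base-two log fold change used to indicate aggregation propensity. Higher values mean more protein remains in solution.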
Regarding “HMQGYELKMYVTPDTKYSVAVYDAKNEMVSYTMGFSAKAPFGQEGEVLETVKLEFDKLAVGNYELKYWI”, the “soluble fraction (log2)” value came to 0.314.

On to “HMQHYQFEVDEASSKKRLDVFLSENLPEISRSRLKKLIDEKRVTVNEMSRPAGYKVRVKEKIEFHIPPL”, for which the “soluble fraction (log2)” value was -0.402.

For the sequence “HMQIAEAESLGQRLLQQSINNIVGRDEAITEERLNRVLSQYSLTGRDELMAQIGLGNRNSSLVAKAMYDI”, the “soluble fraction (log2)” value turned out to be 0.0632.

In the case of “HMQIKEVDYGTFISMTEDGEIGRVEIQQQENTILFTDEDETAVYKTAMVEDDQLTQRLYDAGISFYGEE”, the “soluble fraction (log2)” value was -0.0136.

In the case of “HMQILVEGVEANQRLDLFLRARLTEFSRSRIQGLVKNGNVLVNGNIARQAYLVQVGDKIELDVPEPVA”, the “soluble fraction (log2)” value is -0.487.

Consider “HMQIMVVDEADRMLDMGFIPDIERIFQLTPFTRQTLFFSATMAPEIERITDTFLHSPERIEVAR”, for which the “soluble fraction (log2)” value is -0.288.

“HMQISDDGFILKIINEVVAENPKSISDYISGKEAAVGFLVGQIMKKTRGKANPKLVNEMLITELAKLKN”: the “soluble fraction (log2)” value is -0.0439.

For “HMQISDESSIAKIADEVISEFPSQVSEFRSGKEKVLQFLIGQVMKKTKGKANPQITAKILREKLS”, the “soluble fraction (log2)” value amounted to 0.119.

Consider “HMQISDSASVKTVVAEAIAANPKAVADFMNGKDTATRYLVGQVMKITKGQAKPELVNQLVLESLAELKEK”, for which the “soluble fraction (log2)” value worked out at 0.335.

On to “HMQISDSGELEKIVLQVIEENPKPAEQVRSGNEKAIGALVGGVMKATQGRADGGEVNRLLRQHLGL”, for which the “soluble fraction (log2)” value was determined as 0.172.

Take “HMQISDVSLIAKVIDDVIDNNVKSVSDYLEGNLNVLRFLVGQVMKETKGKANPQKATELLQEKLESLNN”: the “soluble fraction (log2)” value is -0.429.

Take “HMQISLDTKLINLEFSVRANNVFRENQIFTLRDLTSHSKEDLMLMTNFGKTTLYEVNKKLEEHQLKLSQ”: the “soluble fraction (log2)” value is -2.69.

Consider “HMQISNEEELEKIIENVIESNPEKVKAYQSGKSGLIGFFMGQVMKESGGQANPNLVNQILKGKL”, for which the “soluble fraction (log2)” value stood at 0.202.

With “HMQIYSQEIYDAQKVLKELGLYTSDLDGLNGPGTKRALRNFQSKSGLNADGVLGPLTKSALDKGEESYITV”, the “soluble fraction (log2)” value is 0.0375.

As for “HMQKADFDYGDYVDLGLAMGRQSRQLREAVGIKLGIGYANSKRFYQRLQTFGISLAELKQAVEEAENDQQN”, the “soluble fraction (log2)” value was -0.735.

Regarding “HMQKEMDIVLQINGKMRSNLKVSSTANDDEIIKTAIESDAYKKFSLGLRIQKTIIVPNRLINIVLEK”, the “soluble fraction (log2)” value is -0.985.

On to “HMQKIYTIARGDTLSHIVAGTLKQQGIAYTTGELYRLVNVVAQYNDILNPNRIYTGHQLDLTPLYSED”, for which the “soluble fraction (log2)” value was -0.103.

For “HMQKLLGPFEDFVKIKLDKYPDTKAAQMHDWLKEHYPDFPEVTPKTVYNFVMYVRQRHNIPIPD”, the “soluble fraction (log2)” value was -0.0276.

With “HMQKTVLAASVYERMKERIMDQYYPPGERLNIDALAIDLAVSPTPIREALARLAAERLITFEAYKGYRVSP”, the “soluble fraction (log2)” value is -1.87.

With “HMQLEPLVTSVIPVNFAKASDISGTIKGKEVGLLSERGNITAENRTNVLIVKDIRKSVDEINAMVKRLD”, the “soluble fraction (log2)” value is -0.0183.

On to “HMQLFKFKNAMMELAKNKNITLDTAEKAIGLEAGFTELVARGVKELALSDVIKISKYFNTTMDSVLD”, for which the “soluble fraction (log2)” value was -0.903.

Regarding “HMQLPFTPREHEITQLLSRGLSNRQIAEALSLSVRTVEGHIYQASTKLGISSRSELAVLVGQFA”, the “soluble fraction (log2)” value is -1.89.

Consider “HMQLSQLLQPFDINAFKGHPLYTEENVKMFNDYTNRVKEWTKGTPYEQYWVTKEGQPTMLAWDSFKK”, for which the “soluble fraction (log2)” value was -0.972.

For the sequence “HMQLTQEAIENLFKITTAKKFREELEKLVVTDSEKKAFAYFTVYHPKLKELPFAILKSVENYTGISI”, the “soluble fraction (log2)” value was -0.871.

On to “HMQLVPGIGRLSARELEVFTLIGRGLGTSEIGKKLGVSAYTVQTHRNHIKEKLNLPNAAAITYWAIQWAHG”, for which the “soluble fraction (log2)” value was -2.14.

In the case of “HMQMEDTDALLQVAKEVVAENQDTVEAYLGGREKAFASLIGAAMKKTRGKANPKVIRQLILDLIQ”, the “soluble fraction (log2)” value came to 0.254.

For “HMQMEISQRIKLERQTLKWTQEELADKIFVSKRTISNWETGRTVPDIESVLRLAKVFHVSLEDLLL”, the “soluble fraction (log2)” value is -4.57.

Turning to “HMQMEYEKAIAYILDKIKSGELSIGSKLPAERVIADTLHIGRNSTREALSILHGMGMVDRVHGSGNYISEH”, the “soluble fraction (log2)” value was -0.421.

“HMQMLQDPFLNALRKEHVPVSIYLVNGIKLQGQVESFDQYVVLLRNTSVTQMVYKHAISTIVPARAVSL”: the “soluble fraction (log2)” value is -0.403.

As to “HMQMRKENKILVTDIGEIDEVKVIFDDDNKPYLYSYNGEDEFYRPDETYKFFDNKEQAEEYVREN”, the “soluble fraction (log2)” value was 0.0625.

Turning to “HMQMSPREKMIYSFIESHPGTKSGEIAEKLNVPLPTVKRILSEMVSGNFIAKHGSGIGTNYSTEK”, the “soluble fraction (log2)” value was 0.233.

“HMQMSWDAVKARLQDIVNNEDKTKPFNDEMLASKLKEQGIEIARRTVVKYRQQLGIPAARLRKK”: the “soluble fraction (log2)” value was -0.468.

Regarding “HMQNAETPDVAAEFRTWTSADGQFQVIAKLVKLDGESVHLERQDDGRQIAVPLGKLSSEDRLFLRGVRP”, the “soluble fraction (log2)” value was determined as 0.0447.

“HMQNEQIAFSKFLQEVDSGRVVQVEIQGNNIKGILSDGSKFYTYSPNYPELVGKLSEKGVNIVASPVE”: the “soluble fraction (log2)” value was 0.0802.

For the sequence “HMQNFLSITSKEKIDIGNFQLISFKFENNLYDYVISGNKSELLIFQEKTIENNNENIEKITSNF”, the “soluble fraction (log2)” value is -2.06.

Regarding “HMQNLETVEEIKELALNYLDKYQPSKKSLQVYLFRKAIDAQSNSVEKSEILKKIETVLTDLEEQGILNDAL”, the “soluble fraction (log2)” value is 0.0664.

Take “HMQNMVYVATKDIPAGGVIDQDSVSKTAISTSIDTSLYITDDDLGKIAVVNISQGQSVFSNMVGT”: the “soluble fraction (log2)” value turned out to be 0.0238.

Regarding “HMQNNITISKEIELRTGPDDTYPTLKKVTAGDNVEMLSKSDTWYEIKTNDSFVGWVPGWSIL”, the “soluble fraction (log2)” value came out at 0.0818.

As to “HMQNSYSVEDLALKAGLSVDTIRYYQGLDLIAPPQKNGRRAIYGDEHLSRLDEIKKLALEGFSLRQISLLK”, the “soluble fraction (log2)” value is -0.652.

As to “HMQNYNLTQQEKKVLQLLVSGKSYKMIAAELNVAFDTVKSHITNIYSKLHVHSGTEAVSVAIRDKI”, the “soluble fraction (log2)” value was -0.444.

As to “HMQPDDELVRLLLIKIFNDKQLKVNPAVINYLLRRIDRSFESINNFVKKIDEFSLEKGRKITVNLVSGFF”, the “soluble fraction (log2)” value is -0.653.

On to “HMQPFTELTPREREILGHLAEGQSNKVIARHLDISDGTVKLHVKAILRKLGVHSRVEAAVMAVEHGIR”, for which the “soluble fraction (log2)” value was -1.31.

For the sequence “HMQPIEIQDRITKAFERSAALEAKNINVEVDGHTVKLTGTVHSLTEKEEARKAAFFAPGVTKVENHLIVDY”, the “soluble fraction (log2)” value came to 0.0426.

For the sequence “HMQPMIQIHTLANHAPVALHIKRNTQRNIIIRARDASSLNLSIPKWFSPAQLQNWLRDNEATLIRILQQAP”, the “soluble fraction (log2)” value is -2.49.

Take “HMQPPKIISTVEPYREVVREYLKQGVEMTAIWQRLRENYQYTGSYSSVRRFVAQLEPRQPEA”: the “soluble fraction (log2)” value was -1.01.

“HMQPQLFRVIADDGLNIRSGPGPEYPPVAPMLRKGTQVELLQAGDRWSKVEVVGSTDVEGWVNQRYLQAV”: the “soluble fraction (log2)” value was 0.0476.

Turning to “HMQPSQTLSATVEFPDRLDRFLALAFPEVSRARFQRLIAEGHVSVEGVPATEIRHKLKAGQRVEAVIPPA”, the “soluble fraction (log2)” value worked out at 0.0663.

In the case of “HMQPTVEGLMKALETMTFNERTALALHYGLTGRQPMTFMAIGRYLGISDGRAEALVNSAIRKLR”, the “soluble fraction (log2)” value was -1.43.

For “HMQQGVEQLPVTEVGGRLMHYYEVQPKETLYSLSHKLGVGQEYIEQHNPSVRGGLRAFMTLYFPAA”, the “soluble fraction (log2)” value is -0.0212.

For “HMQQIAVDLSEFKPRLMRDMSSMLAGLYTHDLDLSSLDFSKVANFTFMFRGAIITGTLKMPKI”, the “soluble fraction (log2)” value is 0.00375.

Regarding “HMQQLDDDTVAYVADNGIAVKSKNGKELSVDTSGLSYDIIMDMFRNLPRNGDFFSSKYWSDNIQKAQAR”, the “soluble fraction (log2)” value is 0.41.

Consider “HMQQLIEFSVTKGHPWINKKIMDLNLPENQLILTIQREGHVVSAEGKTIILENDRITISTDDR”, for which the “soluble fraction (log2)” value is -0.0156.

In the case of “HMQQPVVVQQNQTVRVVTGGPGFQVANEGRALNNGLAGQVVQVRLGNGQIISGIARAGGIVEIL”, the “soluble fraction (log2)” value was determined as 0.0705.

Consider “HMQQSQLDDIKSVVGGDEGYNKLREWTQANVPDETLKAFDKILDTQDPTMIKVAVEGFAAQMRQAE”, for which the “soluble fraction (log2)” value was -0.36.

For “HMQQTAEDWKNKGDSLTAQSEYVEAIAAYDEAIRLDPNYAPAWSNKGNALKNLGEYYKAIQAYDEAIRL”, the “soluble fraction (log2)” value was determined as 0.198.

In the case of “HMQQYLDAYDKALAFGIAMNKLPSYENLTLDDKEDVDKLKEIYDGMSNYEKTFVAKDFTDKLDRYVKRIE”, the “soluble fraction (log2)” value was -0.0367.

In the case of “HMQRADYLILYYIKMQAEQHPDSKVYLADLAAVMGLKVTELSKAVEKLQDNGFVAWKTDREAGRTYVELS”, the “soluble fraction (log2)” value is -1.31.

Turning to “HMQRIFIDNHDRILYYSNPAGYIAGKEAVVDTMFQTQELERFLQKQSLSIRWEDGVYDRLLLGQ”, the “soluble fraction (log2)” value is 0.016.

For the sequence “HMQRRHESTPIPADFDYAAVRGLSAEVQQKLERVRPLSIGQAQRIPGMTPAAISLLLVHLERQRRSRV”, the “soluble fraction (log2)” value is -0.152.

For “HMQRSVKNNDTVQVHYTGKLTNGQIFDSSIDKQPLEFQLGQGQIIPGFEKGLIDMTVSEKKTITIPEAEAY”, the “soluble fraction (log2)” value came out at 0.1.

For “HMQSAEMTLDREGQPVQVRVELTGNEARITFLSDQEQTREALDAGMAQLRELLEQQGMVLAGVTV”, the “soluble fraction (log2)” value is -0.0108.

For the sequence “HMQSDQLSDREREILRLIGSGRTNQEISQELQVSGSTVRTHLQHILDKLGLENRNQAVLYAIRIGLAAPP”, the “soluble fraction (log2)” value is -0.125.

Consider “HMQSHGSRIWTDITGNFTREASFIELAEGKVTLQLTDGRRTIISFEILSKKDQEYVLDIGDS”, for which the “soluble fraction (log2)” value was -2.11.

As to “HMQSKDDLLDTFRVVKGNAALLNDQNKKLIRSLKVSSFGFTGITDQAAEVKKEMPDVLLEKASIEDILF”, the “soluble fraction (log2)” value is -0.12.

In the case of “HMQSLAAKINGYIVAQRTSIAAIAKEIGYSRVTVSRYLAGKYDSDPTGIEAKLAAFLAGQTGEE”, the “soluble fraction (log2)” value is -1.75.

For the sequence “HMQSNIHELQKKLNEALQALSEDHRAVVTMFDIQGMPHAEISKILGVSEGTVRSRLYYAHQQLQGHL”, the “soluble fraction (log2)” value is -1.03.

As for “HMQSRYALLAGMLRARITEGDWVPGSAIPAETVLAKEHGVALGTMRQAIALLVSQGLLERQHGRGTFVRS”, the “soluble fraction (log2)” value was -1.16.

For the sequence “HMQSSDQTDNIYENAVSIVLETGKASASHLQRVLGIDYNLAAHLIDKMEDGGLLSPPNYLGHRDVYGYT”, the “soluble fraction (log2)” value stood at 0.0916.
